{"source": "patent US20250049939A1", "about": "“NOVEL FLT3 ANTIBODIES AND ANTIBODY-DRUG-CONJUGATES BASED THEREON, THERAPEUTIC METHODS AND USES THEREOF IN COMBINATION WITH TYROSINE KINASE INHIBITORS” (TUBULIS GmbH, priority 2021, published 2025)", "molecular_target": "human CD64 (high affinity Fc receptor, FCGR1) on cells (human) (UniProt P12314)", "sequence (P12314 16-374)": "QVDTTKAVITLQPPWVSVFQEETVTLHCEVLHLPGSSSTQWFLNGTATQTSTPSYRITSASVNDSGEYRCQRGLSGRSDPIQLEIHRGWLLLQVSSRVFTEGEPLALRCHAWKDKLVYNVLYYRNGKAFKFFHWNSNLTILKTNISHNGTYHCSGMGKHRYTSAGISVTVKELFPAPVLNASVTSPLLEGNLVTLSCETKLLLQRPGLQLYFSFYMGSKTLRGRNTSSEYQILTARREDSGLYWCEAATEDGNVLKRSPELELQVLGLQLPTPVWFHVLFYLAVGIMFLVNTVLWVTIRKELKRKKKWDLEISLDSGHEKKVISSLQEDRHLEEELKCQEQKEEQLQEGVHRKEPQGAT", "experiment": "cell-based or functional assay", "data": [{"substance": "IgG1-ADC (palivizumab conjugated to MMAF) (antibody)", "values": [{"measurement": "IC50 of cytotoxicity in Ba/F3-pMIY-CD64 cells", "result": 31.8, "unit": "ng/ml"}, {"measurement": "IC50 of cytotoxicity in Ba/F3 cells expressing both FLT3 and CD64", "result": 0.0783, "unit": "µg/mL"}, {"measurement": "IC50 of cytotoxicity in CD64 positive leukemia and lymphoma cell lines", "result": "0.0128 to 2", "unit": "µg/mL"}]}]}
